In US20240270821A1, “GIP/GLP1/GCG TRI-RECEPTOR AGONISTS AND USES THEREOF” (priority 2023, published 2024):

T1: human GIP receptor (human) (UniProt P48546)
T1 sequence (looked up): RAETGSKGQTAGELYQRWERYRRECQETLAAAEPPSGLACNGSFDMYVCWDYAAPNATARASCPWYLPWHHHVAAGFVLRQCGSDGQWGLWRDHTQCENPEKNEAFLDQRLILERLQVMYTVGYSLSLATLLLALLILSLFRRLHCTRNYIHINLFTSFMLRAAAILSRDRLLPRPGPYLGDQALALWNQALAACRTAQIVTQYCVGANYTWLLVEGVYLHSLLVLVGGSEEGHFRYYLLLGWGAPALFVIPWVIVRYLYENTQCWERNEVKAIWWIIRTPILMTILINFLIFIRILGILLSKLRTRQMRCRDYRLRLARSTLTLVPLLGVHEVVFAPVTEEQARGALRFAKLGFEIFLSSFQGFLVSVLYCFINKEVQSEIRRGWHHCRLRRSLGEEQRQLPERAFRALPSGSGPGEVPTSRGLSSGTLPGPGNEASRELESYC


How the values were obtained:
Assay in all cases: cell-based or functional assay
hGLP-1R = hGLP-1R (Homo sapiens, UniProt P43220)
[1] = target: T1, human GIP receptor (human)
[2] = target: human glucagon receptor (human) (UniProt P47871)
human glucagon receptor (human), sequence (P47871 26-477): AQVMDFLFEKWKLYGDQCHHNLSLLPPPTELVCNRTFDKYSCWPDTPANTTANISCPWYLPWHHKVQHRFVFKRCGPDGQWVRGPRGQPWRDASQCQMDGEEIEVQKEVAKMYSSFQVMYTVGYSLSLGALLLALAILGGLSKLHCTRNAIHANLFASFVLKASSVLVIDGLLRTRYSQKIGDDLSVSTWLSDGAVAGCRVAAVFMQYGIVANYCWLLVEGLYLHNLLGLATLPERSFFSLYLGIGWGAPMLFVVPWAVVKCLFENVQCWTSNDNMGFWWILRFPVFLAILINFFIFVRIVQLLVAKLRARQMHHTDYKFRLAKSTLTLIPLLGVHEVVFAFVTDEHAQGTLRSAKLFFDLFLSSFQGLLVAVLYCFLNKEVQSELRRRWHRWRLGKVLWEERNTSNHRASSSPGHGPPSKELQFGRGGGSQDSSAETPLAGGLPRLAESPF

hGLP-1R, sequence (P43220 24-463): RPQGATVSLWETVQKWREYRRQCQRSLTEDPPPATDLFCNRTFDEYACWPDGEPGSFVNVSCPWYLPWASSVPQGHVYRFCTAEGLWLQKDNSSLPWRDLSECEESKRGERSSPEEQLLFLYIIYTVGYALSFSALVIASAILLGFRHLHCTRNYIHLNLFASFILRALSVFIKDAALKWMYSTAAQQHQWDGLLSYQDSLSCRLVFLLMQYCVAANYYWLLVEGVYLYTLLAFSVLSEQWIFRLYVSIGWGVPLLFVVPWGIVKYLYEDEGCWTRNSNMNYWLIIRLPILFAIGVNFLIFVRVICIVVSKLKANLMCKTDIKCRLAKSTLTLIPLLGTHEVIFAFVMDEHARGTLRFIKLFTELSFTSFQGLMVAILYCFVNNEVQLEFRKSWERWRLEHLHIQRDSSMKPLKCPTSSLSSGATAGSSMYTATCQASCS

Row | Binder | Relative cAMP EC50 (hGLP-1R) [nM] | cAMP Rel EC50 (in the presence of 1% HSA) (hGLP-1R) [nM] | Relative cAMP EC50 [1] [nM] | cAMP Rel EC50 (in the presence of 1% HSA) [1] [nM] | Relative cAMP EC50 [2] [nM] | cAMP Rel EC50 (in the presence of 1% HSA) [2] [nM] | cAMP Rel EC50, nM (1% HSA) (hGLP-1R) [nM] | cAMP Rel EC50, nM (1% HSA) [1] [nM] | cAMP Rel EC50, nM (1% HSA) [2] [nM]
1 | YXQGTFTSDFSKXLDKKAQXAFIEYLLEGGPSSGEPPPEEG (not fully specified; synthetic construct; SITE 2: note = 2-Aminoisobutyric Acid; SITE 13: note = alpha-methyl-leucine; SITE 17: note = Lysine is chemically modified through conjugation of the epsilon-amino group of the Lysine side chain with (2-[2-(2-Amino-ethoxy)-ethoxy]-acetyl)-(gamma-Glu)-CO-(CH2) 18-CO2H; SITE 20: n) [Example 35] | 3.05 | 1130 | 0.55 | 194 | 4.32 | 1390 |  |  | 
2 | YXQGTFTSDFSKXLDKKAQXAFIEYLAAGGPSSGEPPPSGE (synthetic construct; SITE 2: note = 2-Aminoisobutyric Acid; SITE 13: note = alpha-methyl-leucine; SITE 17: note = Lysine is chemically modified through conjugation of the epsilon-amino group of the Lysine side chain with (epsilon-K)2-(gamma-Glu)-CO-(CH2)18-CO2H; SITE 20: note = 2-Aminoisobutyric Aci) [Example 405] | 1.48 |  | 0.28 |  | 15.5 |  | 285 | 32.1 | 2530
3 | YXQGTFTSDFSKXLDKKAQXAFIEYLLEGGPSSGEPPPTEG (synthetic construct; SITE 2: note = 2-Aminoisobutyric Acid; SITE 13: note = alpha-methyl-leucine; SITE 17: note = Lysine is chemically modified through conjugation of the epsilon-amino group of the Lysine side chain with (2-[2-(2-Amino-ethoxy)-ethoxy]-acetyl)-(gamma-Glu)-CO-(CH2) 18-CO2H; SITE 20: n) [Example 36] | 3.57 | 1360 | 0.482 | 170 | 4.32 | 1330 |  |  | 
4 | YXQGTXTSDYSILLDKKAQXAFIEYLEEGGPSSGAPPPE (not fully specified; synthetic construct; SITE 2: note = 2-Aminoisobutyric Acid; SITE 6: note = alpha-methyl-2-fluoro-L-phenylalanine; SITE 17: note = Lysine is chemically modified through conjugation of the epsilon-amino group of the Lysine side chain with (2-[2-(2-Amino-ethoxy)-ethoxy]-acetyl)-(gamma-Glu)-CO-(CH2) 16-) [Example 388] | 0.373 |  | 0.0462 |  | 2.15 |  | 52.5 | 14.1 | 603
5 | YXQGTXTSDYSIXLDKKAQXAFIEYLEEGGPSSGAPPPS (synthetic construct; SITE 2: note = 2-Aminoisobutyric Acid; SITE 6: note = alpha-methyl-L-phenylalanine; SITE 13: note = alpha-methyl-leucine; SITE 17: note = Lysine is chemically modified through conjugation of the epsilon-amino group of the Lysine side chain with (2-[2-(2-Amino-ethoxy)-ethoxy]-ace)) [Example 394] |  |  |  |  |  |  | 33.2 | 7.22 | 1090
6 | YXQGTXTSDYSILLDKKAQXAFIEYLEEGGPSSGAPPPS (synthetic construct; SITE 2: note = 2-Aminoisobutyric Acid; SITE 6: note = alpha-methyl-L-phenylalanine; SITE 17: note = Lysine is chemically modified through conjugation of the epsilon-amino group of the Lysine side chain with (2-[2-(2-Amino-ethoxy)-ethoxy]-acetyl)-(gamma-Glu)-CO-(CH2) 16-CO2H; SIT) [Example 392] | 0.253 |  | 0.0571 |  | 3.02 |  | 41.5 | 28.7 | 611
7 | YXQGTXTSDYSIXLDKKAQXAFIEYLEEGGPSSGAPPPE (synthetic construct; SITE 2: note = 2-Aminoisobutyric Acid; SITE 6: note = alpha-methyl-2-fluoro-L-phenylalanine; SITE 13: note = alpha-methyl-leucine; SITE 17: note = Lysine is chemically modified through conjugation of the epsilon-amino group of the Lysine side chain with (2-[2-(2-Amino-ethoxy)-et)) [Example 400] | 0.253 |  | 0.0158 |  | 2.53 |  | 29.1 | 3.86 | 265
8 | YXQGTXTSDYSIXLDXKAQXAFIEYLEEGGPSSGAPPPE (not fully specified; synthetic construct; SITE 2: note = 2-Aminoisobutyric Acid; SITE 6: note = alpha-methyl-L-phenylalanine; SITE 13: note = alpha-methyl-leucine; SITE 16: note = L-ornithine; SITE 17: note = Lysine is chemically modified through conjugation of the epsilon-amino group of the Lysine side chain with (2-[2)) [Example 397] | 0.2 |  | 0.0247 |  | 5.22 |  | 34.9 | 10.1 | 1110
9 | YXQGTXTSDYSILLDKKAQXAFIEYLEEGGPSSGAPPPS (synthetic construct; SITE 2: note = 2-Aminoisobutyric Acid; SITE 6: note = alpha-methyl-2-fluoro-L-phenylalanine; SITE 17: note = Lysine is chemically modified through conjugation of the epsilon-amino group of the Lysine side chain with (gamma-Glu)2-CO-(CH2)16-CO2H; SITE 20: note = 2-Aminoisobutyric) [Example 406] | 0.208 |  | 0.0233 |  | 1.23 |  | 27.8 | 10.5 | 254
10 | YXQGTXTSDYXILLDKKAQXAFIEYLEEGGPSSGAPPPS (synthetic construct; SITE 2: note = 2-Aminoisobutyric Acid; SITE 6: note = alpha-methyl-L-phenylalanine; SITE 11: note = alpha-methyl-L-serine; SITE 17: note = Lysine is chemically modified through conjugation of the epsilon-amino group of the Lysine side chain with (2-[2-(2-Amino-ethoxy)-ethoxy]-ac)) [Example 393] | 0.211 |  | 0.0458 |  | 0.947 |  | 29.6 | 12.4 | 151
